Source: the supplement of paper PMC7125110
± gives the standard error. This sample holds only a part of the variants without activity.

B1: glmS ribozyme (parent)
chain: AUAAAAGCGCCAGAACUACAGAAAUGUAGUUGACGAGGAGGAGGUUUAUCGAAUUUUCGGCGGAUGCCUCCAAA

Key:
Settings in all cases: with glucosamine-6-phosphate
glucosamine-6-phosphate [1] = variants of: B1; test: self-cleavage kobs at 40 uM GlcN6P; higher = faster cleavage; RNA array
In short: (§1)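 Barcoded ribozyme variants on sequenced MiSeq chips were transcribed in situ by E. coli RNA polymerase and followed at 37 °C through a hybridised Cy3 probe. Glucosamine-6-phosphate at 40 μM to 10 mM in HEPES/KCl/Mg(OAc)2 buffer was flowed in, and tiles were imaged over ~14 h. Signals were normalised to baseline and to non-cleaving reference variants, and per-tile medians were fit to one- or two-exponential decays to give kobs. Weighted Michaelis–Menten fits across concentrations gave kcat and KM.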

glucosamine-6-phosphate [2] = variants of: B1; test: self-cleavage kobs at 160 uM GlcN6P; higher = faster cleavage; RNA array
In short: as §1

glucosamine-6-phosphate [3] = variants of: B1; test: self-cleavage kobs at 640 uM GlcN6P; higher = faster cleavage; RNA array
In short: as §1

glucosamine-6-phosphate [4] = variants of: B1; test: self-cleavage kobs at 2500 uM GlcN6P; higher = faster cleavage; RNA array
In short: as §1

glucosamine-6-phosphate [5] = variants of: B1; test: self-cleavage kobs at 10000 uM GlcN6P; higher = faster cleavage; RNA array
In short: as §1

Variant | self-cleavage kobs at 40 uM GlcN6P (glucosamine-6-phosphate [1]) | self-cleavage kobs at 160 uM GlcN6P (glucosamine-6-phosphate [2]) | self-cleavage kobs at 640 uM GlcN6P (glucosamine-6-phosphate [3]) | self-cleavage kobs at 2500 uM GlcN6P (glucosamine-6-phosphate [4]) | self-cleavage kobs at 10000 uM GlcN6P (glucosamine-6-phosphate [5])
G37A G63C | < 1e-05 s⁻¹ | < 1e-05 s⁻¹ | < 1e-05 s⁻¹ | < 1e-05 s⁻¹ | < 1e-05 s⁻¹
G35A C67A | < 1e-05 s⁻¹ | < 1e-05 s⁻¹ | < 1e-05 s⁻¹ | < 1e-05 s⁻¹ | 
C8A A15G U54A | < 1e-05 s⁻¹ |  |  |  | < 1e-05 s⁻¹
C11A G32C | < 1e-05 s⁻¹ |  |  |  | 
G66A C71A | 0.000146 ± 2.1e-05 s⁻¹ | 0.00048 ± 9.5e-05 s⁻¹ | 0.0014 ± 0.00036 s⁻¹ |  | 0.00424 ± 0.00059 s⁻¹
G9C G43A G44U C70G | < 1e-05 s⁻¹ |  |  |  | < 1e-05 s⁻¹
C58A G62C | < 1e-05 s⁻¹ | < 1e-05 s⁻¹ | < 1e-05 s⁻¹ | < 1e-05 s⁻¹ | 
G9A A39C | < 1e-05 s⁻¹ | < 1e-05 s⁻¹ |  | < 1e-05 s⁻¹ | 
C10G G38U U65G | < 1e-05 s⁻¹ |  |  |  | < 1e-05 s⁻¹
A6U U57G | < 1e-05 s⁻¹ |  |  |  | 
C34A G41C A53G U54A U56G | < 1e-05 s⁻¹ |  |  |  | < 1e-05 s⁻¹
C8G A48G U54A | < 1e-05 s⁻¹ |  |  | < 1e-05 s⁻¹ | < 1e-05 s⁻¹
G29U U30G U54A | 9.91e-05 ± 2.6e-05 s⁻¹ |  |  |  | 0.00383 ± 0.00068 s⁻¹
A14G A39U G44A | 0.000196 ± 4.6e-05 s⁻¹ |  |  |  | 0.00841 ± 0.0018 s⁻¹
C10G C50G | 5.37e-05 ± 1.8e-05 s⁻¹ | 0.000187 ± 3.5e-05 s⁻¹ | 0.00026 ± 4.4e-05 s⁻¹ | 9.17e-05 ± 2.1e-05 s⁻¹ | 4.6e-05 ± 1.1e-05 s⁻¹
G13C G66C | < 1e-05 s⁻¹ |  | < 1e-05 s⁻¹ |  | 
A33G G44U C67U | < 1e-05 s⁻¹ |  |  |  | < 1e-05 s⁻¹
A14U U30C C61U C68A | < 1e-05 s⁻¹ |  |  |  | 
A39G U47G | 0.000644 ± 0.0001 s⁻¹ |  | 0.00207 ± 0.00049 s⁻¹ | 0.0155 ± 0.0035 s⁻¹ | 0.0237 ± 0.0069 s⁻¹
G13A C16U G37U C67U | < 1e-05 s⁻¹ |  |  |  | 
G35A A64G C70G | < 1e-05 s⁻¹ |  |  |  | < 1e-05 s⁻¹
G37A A53G G60U C61U G63A | < 1e-05 s⁻¹ |  |  |  | 
A12U G41U C61U | < 1e-05 s⁻¹ | < 1e-05 s⁻¹ | < 1e-05 s⁻¹ | < 1e-05 s⁻¹ | < 1e-05 s⁻¹
C8U A15G G38U C61G C68G | 0.00048 ± 0.00015 s⁻¹ |  |  |  | 0.000181 ± 4.8e-05 s⁻¹
A6G U54G U57C | < 1e-05 s⁻¹ |  |  |  | < 1e-05 s⁻¹
